Assay results: patent CN115785274A (DONGGUAN PENGZHI BIOTECHNOLOGY CO LTD, dated 2023)

Biological target: T1, PG I蛋白(fitzgerald，30R-AP038) (UniProt P0DJD8 16-388)
T1 construct: Bought antigen; Pepsinogen I is a group of isozymogens (human genes PGA3, PGA4, PGA5); also called 胃蛋白酶原I; HPG I
Assay: BLI, antibody captured on AMC sensor, PG I protein in a dilution series in PBST

T1 sequence (P0DJD8 16-388): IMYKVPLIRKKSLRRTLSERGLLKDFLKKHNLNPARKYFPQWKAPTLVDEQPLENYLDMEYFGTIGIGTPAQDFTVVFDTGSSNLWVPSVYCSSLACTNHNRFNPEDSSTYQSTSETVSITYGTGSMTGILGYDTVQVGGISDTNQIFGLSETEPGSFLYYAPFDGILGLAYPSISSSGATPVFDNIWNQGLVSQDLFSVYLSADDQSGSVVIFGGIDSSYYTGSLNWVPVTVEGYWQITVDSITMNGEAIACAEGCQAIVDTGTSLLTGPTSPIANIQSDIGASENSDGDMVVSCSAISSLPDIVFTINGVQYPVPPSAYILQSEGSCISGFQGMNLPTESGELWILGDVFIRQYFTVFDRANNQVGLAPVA

Row | Kd [pM] | koff [s⁻¹] | kon [M⁻¹ s⁻¹] | Molecule
1 | 271 | 0.000529 | 1.95e+06 | 对照抗体 (antibody)
2 | 27.5 | 0.000536 | 1.95e+07 | Anti-HPG I 13A5单克隆抗体 (antibody, V domains shown) VH: QVQLQQSGPELVRPGVSVKISCKGSGYTFTDHPMHWVKQSHAKSLEWIGVISTFSGHRNYNQKFKGKATMTVDKSSTTAYMELDRLTSEDSAIYYCARGDKSIYYGSYLSWGQGTLITVSA VL: QIVLTQSPAIMSASPGEKVTMTCSASSSVSYMYWYQQKSGTSPKRWIYDTSKLTSGVPARFSGSGSGTSYSLTISSMETEDAATYFCQQWSSSPLTFGAGTKLELK
